This passage reports binding specificity, clonal phage vs. control phage results from PMC3816987.

Chain of Zinc finger E-box binding homeobox 1 (Zeb1) phage clone, 903E-1021E (Q64318 whole entry, the tested form may be a part): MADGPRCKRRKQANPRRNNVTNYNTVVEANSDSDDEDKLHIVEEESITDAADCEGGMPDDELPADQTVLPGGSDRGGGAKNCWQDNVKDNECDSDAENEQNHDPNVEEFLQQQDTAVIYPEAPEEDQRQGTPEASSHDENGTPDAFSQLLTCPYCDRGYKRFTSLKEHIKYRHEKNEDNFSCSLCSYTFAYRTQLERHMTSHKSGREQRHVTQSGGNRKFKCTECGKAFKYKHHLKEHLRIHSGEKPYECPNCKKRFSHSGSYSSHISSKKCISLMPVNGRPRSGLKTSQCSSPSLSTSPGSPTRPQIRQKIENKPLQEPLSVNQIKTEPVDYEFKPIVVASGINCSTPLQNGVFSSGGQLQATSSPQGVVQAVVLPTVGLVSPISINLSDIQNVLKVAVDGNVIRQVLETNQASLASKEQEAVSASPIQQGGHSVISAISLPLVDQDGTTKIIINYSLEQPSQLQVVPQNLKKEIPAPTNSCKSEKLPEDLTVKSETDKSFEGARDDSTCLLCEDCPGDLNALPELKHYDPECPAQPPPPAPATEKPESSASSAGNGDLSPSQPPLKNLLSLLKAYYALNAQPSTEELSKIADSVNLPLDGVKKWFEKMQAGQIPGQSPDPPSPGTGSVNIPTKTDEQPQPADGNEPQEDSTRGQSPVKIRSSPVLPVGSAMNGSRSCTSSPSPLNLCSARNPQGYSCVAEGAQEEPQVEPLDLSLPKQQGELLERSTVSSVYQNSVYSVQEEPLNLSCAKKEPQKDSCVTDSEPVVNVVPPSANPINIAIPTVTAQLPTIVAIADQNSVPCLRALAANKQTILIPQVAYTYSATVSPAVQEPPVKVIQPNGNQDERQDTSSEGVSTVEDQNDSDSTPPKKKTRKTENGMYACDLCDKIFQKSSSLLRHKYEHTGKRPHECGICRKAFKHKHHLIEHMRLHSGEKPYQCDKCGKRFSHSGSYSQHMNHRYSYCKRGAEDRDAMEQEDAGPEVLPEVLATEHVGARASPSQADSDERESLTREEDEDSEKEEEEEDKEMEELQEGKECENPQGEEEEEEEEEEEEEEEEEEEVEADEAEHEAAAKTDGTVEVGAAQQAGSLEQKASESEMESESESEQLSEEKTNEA
Chain of ATP-binding cassette F1 (Abcf1) phage clone, 57K-196G (Q6P542 whole entry, the tested form may be a part): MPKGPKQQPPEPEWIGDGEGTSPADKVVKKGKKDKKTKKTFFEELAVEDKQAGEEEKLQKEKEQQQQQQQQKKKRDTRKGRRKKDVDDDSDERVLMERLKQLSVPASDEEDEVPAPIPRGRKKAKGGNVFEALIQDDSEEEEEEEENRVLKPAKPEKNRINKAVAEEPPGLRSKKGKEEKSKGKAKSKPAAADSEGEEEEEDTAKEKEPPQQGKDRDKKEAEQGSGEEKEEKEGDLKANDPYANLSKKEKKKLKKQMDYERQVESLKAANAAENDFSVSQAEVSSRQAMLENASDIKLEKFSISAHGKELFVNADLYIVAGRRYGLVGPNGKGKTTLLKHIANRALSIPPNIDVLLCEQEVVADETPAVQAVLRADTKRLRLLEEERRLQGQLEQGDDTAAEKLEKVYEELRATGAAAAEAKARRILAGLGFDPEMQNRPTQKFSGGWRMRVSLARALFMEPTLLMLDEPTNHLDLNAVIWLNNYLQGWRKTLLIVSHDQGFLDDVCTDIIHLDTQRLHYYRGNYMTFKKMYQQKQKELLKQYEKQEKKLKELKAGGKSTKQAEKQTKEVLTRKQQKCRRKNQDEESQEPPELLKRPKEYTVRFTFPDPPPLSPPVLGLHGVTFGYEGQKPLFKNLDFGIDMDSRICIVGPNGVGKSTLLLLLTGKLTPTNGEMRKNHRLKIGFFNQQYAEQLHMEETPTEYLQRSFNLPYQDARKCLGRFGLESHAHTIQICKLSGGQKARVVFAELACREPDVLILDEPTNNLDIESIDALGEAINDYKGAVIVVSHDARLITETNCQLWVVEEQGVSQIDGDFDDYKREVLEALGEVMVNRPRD
Chain of High mobility group (Hmg) box 2 (Hmgb2) phage clone, 89K-188E (P30681 whole entry, the tested form may be a part): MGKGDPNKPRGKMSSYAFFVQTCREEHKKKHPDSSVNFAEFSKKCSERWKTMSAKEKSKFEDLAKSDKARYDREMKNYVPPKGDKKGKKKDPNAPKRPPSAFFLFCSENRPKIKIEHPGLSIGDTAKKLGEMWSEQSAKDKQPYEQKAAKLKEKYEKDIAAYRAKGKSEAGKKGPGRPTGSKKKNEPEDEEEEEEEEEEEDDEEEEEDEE
Chain of Structure specific recognition protein 1 (Ssrp1) phage clone, 486E-619G (Q08943 2-708): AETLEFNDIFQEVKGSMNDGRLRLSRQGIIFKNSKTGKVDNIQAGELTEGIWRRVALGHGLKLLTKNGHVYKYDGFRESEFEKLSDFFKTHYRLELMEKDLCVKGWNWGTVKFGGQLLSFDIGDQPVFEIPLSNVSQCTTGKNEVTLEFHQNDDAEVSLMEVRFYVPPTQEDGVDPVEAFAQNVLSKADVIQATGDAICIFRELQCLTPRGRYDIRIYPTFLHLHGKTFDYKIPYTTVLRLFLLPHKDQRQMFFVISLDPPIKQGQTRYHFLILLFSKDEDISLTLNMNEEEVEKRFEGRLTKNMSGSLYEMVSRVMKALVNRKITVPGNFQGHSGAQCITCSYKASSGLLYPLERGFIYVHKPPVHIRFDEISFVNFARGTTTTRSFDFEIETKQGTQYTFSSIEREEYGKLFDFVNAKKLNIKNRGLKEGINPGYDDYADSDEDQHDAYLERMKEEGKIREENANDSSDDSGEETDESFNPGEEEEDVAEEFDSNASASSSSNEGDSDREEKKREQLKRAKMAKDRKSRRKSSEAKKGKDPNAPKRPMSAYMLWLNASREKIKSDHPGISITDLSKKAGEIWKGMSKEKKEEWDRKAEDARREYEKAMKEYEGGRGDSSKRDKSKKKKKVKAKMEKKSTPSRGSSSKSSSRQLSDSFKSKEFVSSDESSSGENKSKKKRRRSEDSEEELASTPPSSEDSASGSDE
Chain of Hmg. nucleosomal binding domain 1 (Hmgn1) phage clone, 1M-49K (P18608 2-96): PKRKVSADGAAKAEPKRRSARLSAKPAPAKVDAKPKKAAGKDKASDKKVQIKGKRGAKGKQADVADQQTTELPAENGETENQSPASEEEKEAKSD
Chain of Zinc finger protein 609 (Zfp609) phage clone, 1M-183E (domain or fragment) (Q8BZ47 whole entry, the tested form may be a part): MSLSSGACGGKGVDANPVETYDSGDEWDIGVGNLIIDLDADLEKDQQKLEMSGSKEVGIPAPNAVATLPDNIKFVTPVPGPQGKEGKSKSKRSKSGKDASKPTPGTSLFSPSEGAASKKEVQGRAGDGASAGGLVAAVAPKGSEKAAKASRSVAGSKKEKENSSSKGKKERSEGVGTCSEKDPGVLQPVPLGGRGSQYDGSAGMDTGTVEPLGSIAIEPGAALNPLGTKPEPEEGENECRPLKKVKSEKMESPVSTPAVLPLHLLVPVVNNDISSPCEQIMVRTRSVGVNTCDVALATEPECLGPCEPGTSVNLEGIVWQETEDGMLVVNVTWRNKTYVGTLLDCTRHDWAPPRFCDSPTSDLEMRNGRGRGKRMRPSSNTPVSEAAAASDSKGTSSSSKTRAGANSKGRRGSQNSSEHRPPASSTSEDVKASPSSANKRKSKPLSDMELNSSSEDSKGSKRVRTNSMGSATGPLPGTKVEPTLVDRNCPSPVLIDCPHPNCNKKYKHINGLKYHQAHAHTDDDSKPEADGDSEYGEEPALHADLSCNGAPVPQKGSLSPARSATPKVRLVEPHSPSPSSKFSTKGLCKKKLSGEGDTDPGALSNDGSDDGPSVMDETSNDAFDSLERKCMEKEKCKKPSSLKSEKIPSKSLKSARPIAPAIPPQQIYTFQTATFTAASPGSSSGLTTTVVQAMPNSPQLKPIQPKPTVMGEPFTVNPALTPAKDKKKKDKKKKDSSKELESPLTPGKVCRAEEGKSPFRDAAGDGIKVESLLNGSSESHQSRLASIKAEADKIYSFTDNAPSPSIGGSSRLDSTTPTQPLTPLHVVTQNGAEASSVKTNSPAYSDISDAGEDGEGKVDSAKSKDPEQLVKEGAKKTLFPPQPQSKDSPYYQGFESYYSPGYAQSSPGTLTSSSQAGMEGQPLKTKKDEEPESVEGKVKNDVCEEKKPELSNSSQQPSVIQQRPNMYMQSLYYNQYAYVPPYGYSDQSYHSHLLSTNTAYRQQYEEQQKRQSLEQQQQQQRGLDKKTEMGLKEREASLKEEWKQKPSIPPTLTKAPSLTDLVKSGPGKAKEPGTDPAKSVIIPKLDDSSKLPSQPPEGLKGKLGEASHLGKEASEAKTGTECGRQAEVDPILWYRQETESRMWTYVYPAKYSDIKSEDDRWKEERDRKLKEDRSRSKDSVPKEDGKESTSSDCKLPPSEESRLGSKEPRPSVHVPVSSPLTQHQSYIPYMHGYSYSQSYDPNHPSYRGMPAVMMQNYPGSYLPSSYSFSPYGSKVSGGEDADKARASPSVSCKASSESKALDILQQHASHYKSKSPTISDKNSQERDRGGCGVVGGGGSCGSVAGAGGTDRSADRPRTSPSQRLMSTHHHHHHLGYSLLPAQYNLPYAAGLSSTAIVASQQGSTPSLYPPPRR

The target of one test is GST fusion protein of Tulp1-N (1M-298Q) (mouse) (UniProt Q9Z273). Briefly: phage binding assay.
Chain of GST fusion protein of Tulp1-N (1M-298Q) (mouse) (Q9Z273 1-298): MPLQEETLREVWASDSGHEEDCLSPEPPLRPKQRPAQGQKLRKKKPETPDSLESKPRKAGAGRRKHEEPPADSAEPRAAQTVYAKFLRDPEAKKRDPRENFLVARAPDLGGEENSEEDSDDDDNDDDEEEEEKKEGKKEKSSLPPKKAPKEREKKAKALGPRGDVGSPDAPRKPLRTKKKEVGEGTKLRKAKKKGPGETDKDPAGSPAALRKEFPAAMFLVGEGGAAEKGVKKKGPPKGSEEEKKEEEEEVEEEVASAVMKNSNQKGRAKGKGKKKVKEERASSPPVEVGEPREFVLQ
Regarding “ATP-binding cassette F1 (Abcf1) phage clone, 57K-196G (from UniProt Q6P542 57-196) (domain or fragment)”, the binding specificity, clonal phage vs. control phage turned out to be 33.4 X. The same measure, in the same setting: as for “High mobility group (Hmg) box 2 (Hmgb2) phage clone, 89K-188E (from UniProt P30681 89-188) (domain or fragment)”, the figure is 55.2 X.

“PC4 and SFRS1 interacting protein 1 (Psip1) phage clone, 152K-219K (from UniProt Q99JF8-1 152-219) (domain or fragment)” registered a binding specificity, clonal phage vs. control phage of 24.1 X. On the same count and under the same terms, as for “Structure specific recognition protein 1 (Ssrp1) phage clone, 486E-619G (from UniProt Q08943-1 486-619) (domain or fragment)”, the figure is 39.7 X; as for “Zinc finger E-box binding homeobox 1 (Zeb1) phage clone, 903E-1021E (from UniProt Q64318 903-1021) (domain or fragment)”, 56.7 X.

In another test the target is GST-free tubby-N (tubby N-terminus, 1M-242P) (mouse) (UniProt P50586). Nature of the test: phage binding assay.
Chain of GST-free tubby-N (tubby N-terminus, 1M-242P) (mouse) (P50586 1-242): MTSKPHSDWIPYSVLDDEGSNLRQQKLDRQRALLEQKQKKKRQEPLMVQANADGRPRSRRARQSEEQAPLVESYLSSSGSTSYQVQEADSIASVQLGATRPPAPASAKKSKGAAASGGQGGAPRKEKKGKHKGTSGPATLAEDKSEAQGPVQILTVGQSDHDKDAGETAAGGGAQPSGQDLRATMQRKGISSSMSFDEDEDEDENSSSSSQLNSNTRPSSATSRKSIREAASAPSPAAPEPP
The substance “ATP-binding cassette F1 (Abcf1) phage clone, 57K-196G (from UniProt Q6P542 57-196) (domain or fragment)” displayed a binding specificity, clonal phage vs. control phage of 68.2 X. On the same count and under the same terms, as for “Armadillo repeat containing, X-linked 4 phage clone, 419S-587N (domain or fragment)”, the figure is 40.1 X. Still for that read-out and setting: as for “High mobility group (Hmg) box 2 (Hmgb2) phage clone, 89K-188E (from UniProt P30681 89-188) (domain or fragment)”, the figure is 312 X. Still for that read-out and setting: as for “Hmg. box 2-like 1 (Hmgb2l1) phage clone, 170K-305G (domain or fragment)”, the figure is 29.8 X; as for “Hmg. nucleosomal binding domain 1 (Hmgn1) phage clone, 1M-49K (from UniProt P18608 1-49) (domain or fragment)”, 61.4 X. Substance “Microtubule-associated protein 7 (Mtap7) phage clone, 23A-114R (from UniProt O88735 23-114) (domain or fragment)” came in with a binding specificity, clonal phage vs. control phage of 3.5 X. Same read-out and setting: as for “PC4 and SFRS1 interacting protein 1 (Psip1) phage clone, 152K-219K (from UniProt Q99JF8-1 152-219) (domain or fragment)”, the figure is 196 X; as for “Structure specific recognition protein 1 (Ssrp1) phage clone, 486E-619G (from UniProt Q08943-1 486-619) (domain or fragment)”, 157 X. Same read-out and setting: as for “Zinc finger E-box binding homeobox 1 (Zeb1) phage clone, 903E-1021E (from UniProt Q64318 903-1021) (domain or fragment)”, the figure is 284 X. Still for that read-out and setting: as for “Zinc finger protein 609 (Zfp609) phage clone, 1M-183E (domain or fragment)”, the figure is 53.2 X.
